In patent US20180186893A1 (NATIONAL RESEARCH COUNCIL OF CANADA, published 2018):

Key:
[1] = molecular target: T1, dimeric CA-IX extracellular domain (ECD) from mouse (mouse, UniProt Q8VHB5 32-390); assay: SPR, antibody captured by anti-human Fc, specific binding yes/no
T1 construct: extracellular domain

[2] = molecular target: hCA-IX fragment 8 (aa 38-414, +PG+CA+) displayed on yeast as Aga2-HA-CA9-MYC (pPNL6), clone 8B (human, UniProt P32781 19-87; Q16790 38-414); assay: YSD whole yeast cell ELISA, native, normalised to anti-MYC; native fragment on yeast (Table 7)
[3] = molecular target: T2, hCA-IX fragment 2 (aa 38-136, +PG+) displayed on yeast as Aga2-HA-CA9-MYC (pPNL6), clone 2B (human, UniProt P32781 19-87; Q16790 38-136); assay: YSD whole yeast cell ELISA, native
T2 construct: not shown: HA tag; MYC tag

rhCA-IV = molecular target: T3, rhCA-IV (human, UniProt P22748 19-283, limits assumed); assay: SPR, antibody captured by anti-human Fc
T3 construct: Bought; construct not described; also called recombinant human CA-IV

rhCA-XIV = molecular target: T4, rhCA-XIV (human, UniProt Q9ULX7 16-290, limits assumed); assay: SPR, antibody captured by anti-human Fc
T4 construct: Bought; construct not described; also called recombinant human CA-XIV

rhCA-XII = molecular target: T5, rhCA-XII (human, UniProt O43570 25-291, limits assumed); assay: SPR, antibody captured by anti-human Fc
T5 construct: Bought; construct not described; also called recombinant human CA-XII (Sino Biologics)

rmCA-IX = molecular target: T6, rmCA-IX (murine, UniProt Q8VHB5 32-389, limits assumed); assay: SPR, antibody captured by anti-human Fc
T6 construct: Bought; construct not described; also called recombinant murine (rm)CA-IX

[4] = molecular target: T7, hCA-IX PG domain fragment #4 (aa 67-81) displayed on yeast as Aga2-HA-CA9-MYC (pPNL6), clone 4 A + B (human, UniProt P32781 19-87 (Saccharomyces cerevisiae entry)); assay: YSD whole yeast cell ELISA, native PG tiling fragment;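 note: monoclonal antibody binding to intact yeast cells displaying the fragment, read by ELISA, with the anti-CA-IX signal normalized against the anti-MYC display signal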
T7 construct: not shown: HA tag; MYC tag

[5] = molecular target: T8, hCA-IX PG domain fragment #9 (aa 117-131) displayed on yeast as Aga2-HA-CA9-MYC (pPNL6), clone 9 A + B (human, UniProt P32781 19-87 (Saccharomyces cerevisiae entry)); assay: as above
T8 construct: not shown: HA tag; MYC tag

[6] = molecular target: T9, hCA-IX PG domain fragment #13 (aa 107-140) displayed on yeast as Aga2-HA-CA9-MYC (pPNL6), clone 13 A + B (human, UniProt P32781 19-87 (Saccharomyces cerevisiae entry)); assay: as above
T9 construct: not shown: HA tag; MYC tag

[7] = molecular target: T10, hCA-IX PG domain fragment #3 (aa 57-71) displayed on yeast as Aga2-HA-CA9-MYC (pPNL6), clone 3 A + B (human, UniProt P32781 19-87 (Saccharomyces cerevisiae entry)); assay: as above
T10 construct: not shown: HA tag; MYC tag

[8] = molecular target: T11, hCA-IX PG domain fragment #1 (aa 37-51) displayed on yeast as Aga2-HA-CA9-MYC (pPNL6), clone 1 A + B (human, UniProt P32781 19-87 (Saccharomyces cerevisiae entry)); assay: as above
T11 construct: not shown: HA tag; MYC tag

[9] = molecular target: T12, hCA-IX PG domain fragment #8 (aa 107-121) displayed on yeast as Aga2-HA-CA9-MYC (pPNL6), clone 8 A + B (human, UniProt P32781 19-87 (Saccharomyces cerevisiae entry)); assay: as above
T12 construct: not shown: HA tag; MYC tag

[10] = molecular target: T13, hCA-IX PG domain fragment #12 (aa 67-111) displayed on yeast as Aga2-HA-CA9-MYC (pPNL6), clone 12 A + B (human, UniProt P32781 19-87 (Saccharomyces cerevisiae entry)); assay: as above
T13 construct: not shown: HA tag; MYC tag

[11] = molecular target: T14, hCA-IX PG domain fragment #6 (aa 87-101) displayed on yeast as Aga2-HA-CA9-MYC (pPNL6), clone 6 A + B (human, UniProt P32781 19-87 (Saccharomyces cerevisiae entry)); assay: as above
T14 construct: not shown: HA tag; MYC tag

[12] = molecular target: T15, hCA-IX PG domain fragment #2 (aa 47-61) displayed on yeast as Aga2-HA-CA9-MYC (pPNL6), clone 2 A + B (human, UniProt P32781 19-87 (Saccharomyces cerevisiae entry)); assay: as above
T15 construct: not shown: HA tag; MYC tag

[13] = molecular target: T16, hCA-IX PG domain fragment #11 (aa 37-71) displayed on yeast as Aga2-HA-CA9-MYC (pPNL6), clone 11 A + B (human, UniProt P32781 19-87 (Saccharomyces cerevisiae entry)); assay: as above
T16 construct: not shown: HA tag; MYC tag

[14] = molecular target: T17, hCA-IX PG domain fragment #7 (aa 97-111) displayed on yeast as Aga2-HA-CA9-MYC (pPNL6), clone 7 A + B (human, UniProt P32781 19-87 (Saccharomyces cerevisiae entry)); assay: as above
T17 construct: not shown: HA tag; MYC tag

[15] = molecular target: T18, hCA-IX PG domain fragment #14 (aa 37-140) displayed on yeast as Aga2-HA-CA9-MYC (pPNL6), clone 14 A + B (human, UniProt P32781 19-87 (Saccharomyces cerevisiae entry)); assay: as above
T18 construct: not shown: HA tag; MYC tag

[16] = molecular target: T19, hCA-IX PG domain fragment #5 (aa 77-91) displayed on yeast as Aga2-HA-CA9-MYC (pPNL6), clone 5 A + B (human, UniProt P32781 19-87 (Saccharomyces cerevisiae entry)); assay: as above
T19 construct: not shown: HA tag; MYC tag
T19 sequence (P32781 19-87 limits assumed): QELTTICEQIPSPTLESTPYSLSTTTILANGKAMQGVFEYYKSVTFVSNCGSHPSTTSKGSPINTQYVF

T6 sequence (Q8VHB5 32-389 limits assumed): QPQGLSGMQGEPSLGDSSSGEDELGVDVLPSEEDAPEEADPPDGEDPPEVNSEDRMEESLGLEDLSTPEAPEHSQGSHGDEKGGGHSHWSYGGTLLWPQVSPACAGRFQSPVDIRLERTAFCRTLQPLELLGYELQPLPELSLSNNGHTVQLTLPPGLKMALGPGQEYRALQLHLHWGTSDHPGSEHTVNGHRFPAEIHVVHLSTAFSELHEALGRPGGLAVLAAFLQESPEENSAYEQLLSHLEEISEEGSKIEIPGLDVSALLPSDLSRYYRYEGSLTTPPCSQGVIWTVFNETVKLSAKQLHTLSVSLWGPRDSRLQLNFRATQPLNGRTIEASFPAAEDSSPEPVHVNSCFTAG
T5 sequence (O43570 25-291 limits assumed): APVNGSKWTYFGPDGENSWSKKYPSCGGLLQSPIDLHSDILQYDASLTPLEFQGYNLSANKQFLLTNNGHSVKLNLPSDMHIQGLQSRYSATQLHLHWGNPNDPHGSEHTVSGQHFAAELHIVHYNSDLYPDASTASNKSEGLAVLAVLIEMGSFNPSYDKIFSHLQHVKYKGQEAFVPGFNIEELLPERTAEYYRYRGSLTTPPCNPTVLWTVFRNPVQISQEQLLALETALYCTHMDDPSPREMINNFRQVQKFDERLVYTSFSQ
T1 sequence (Q8VHB5 32-390): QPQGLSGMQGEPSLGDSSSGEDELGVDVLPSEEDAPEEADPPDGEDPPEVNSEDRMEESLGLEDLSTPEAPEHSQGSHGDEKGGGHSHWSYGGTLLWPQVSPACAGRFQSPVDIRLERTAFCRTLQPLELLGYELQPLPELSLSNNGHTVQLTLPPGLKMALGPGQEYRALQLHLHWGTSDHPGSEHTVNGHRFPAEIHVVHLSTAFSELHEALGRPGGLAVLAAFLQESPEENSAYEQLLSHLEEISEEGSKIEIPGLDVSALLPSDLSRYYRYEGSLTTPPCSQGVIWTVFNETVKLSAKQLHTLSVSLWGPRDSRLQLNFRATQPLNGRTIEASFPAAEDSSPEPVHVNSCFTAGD
T4 sequence (Q9ULX7 16-290 limits assumed): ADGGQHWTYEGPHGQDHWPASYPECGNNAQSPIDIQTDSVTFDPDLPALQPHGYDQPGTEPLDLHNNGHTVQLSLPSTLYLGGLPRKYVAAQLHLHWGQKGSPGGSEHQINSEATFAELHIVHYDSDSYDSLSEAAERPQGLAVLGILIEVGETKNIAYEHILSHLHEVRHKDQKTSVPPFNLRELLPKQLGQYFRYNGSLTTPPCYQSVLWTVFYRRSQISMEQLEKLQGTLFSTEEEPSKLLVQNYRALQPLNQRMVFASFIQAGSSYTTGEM
T10 sequence (P32781 19-87 limits assumed): as the sequence (P32781 19-87 limits assumed) above
T16 sequence (P32781 19-87 limits assumed, chain 1 of 2): as the sequence (P32781 19-87 limits assumed) above
T16 sequence (chain (part 2 of 2), as listed by the source limits assumed, chain 2 of 2): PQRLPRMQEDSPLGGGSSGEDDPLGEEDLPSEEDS
T11 sequence (P32781 19-87 limits assumed): as the sequence (P32781 19-87 limits assumed) above
T14 sequence (P32781 19-87 limits assumed): as above
T18 sequence (P32781 19-87 limits assumed, chain 1 of 2): as the sequence (P32781 19-87 limits assumed) above
T18 sequence (chain (part 2 of 2), as listed by the source limits assumed, chain 2 of 2): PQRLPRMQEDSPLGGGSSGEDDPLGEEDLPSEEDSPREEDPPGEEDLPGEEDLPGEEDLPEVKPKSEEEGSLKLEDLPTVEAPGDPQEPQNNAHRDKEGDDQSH
T17 sequence (P32781 19-87 limits assumed): as the sequence (P32781 19-87 limits assumed) above
T12 sequence (P32781 19-87 limits assumed): as above
T9 sequence (P32781 19-87 limits assumed, chain 1 of 2): as the sequence (P32781 19-87 limits assumed) above
T9 sequence (chain (part 2 of 2), as listed by the source limits assumed, chain 2 of 2): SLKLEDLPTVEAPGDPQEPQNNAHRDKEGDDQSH
T8 sequence (P32781 19-87 limits assumed): as the sequence (P32781 19-87 limits assumed) above
hCA-IX fragment 8 (aa 38-414, +PG+CA+) displayed on yeast as Aga2-HA-CA9-MYC (pPNL6), clone 8B, sequence (P32781 19-87 limits assumed, chain 1 of 2, other chains not shown): as the sequence (P32781 19-87 limits assumed) above
T7 sequence (P32781 19-87 limits assumed): as above
T15 sequence (P32781 19-87 limits assumed): as above
T13 sequence (P32781 19-87 limits assumed, chain 1 of 2): as the sequence (P32781 19-87 limits assumed) above
T13 sequence (chain (part 2 of 2), as listed by the source limits assumed, chain 2 of 2): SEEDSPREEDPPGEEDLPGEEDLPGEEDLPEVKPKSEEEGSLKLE
T2 sequence (P32781 19-87 limits assumed, chain 1 of 2, other chains not shown): as the sequence (P32781 19-87 limits assumed) above
T3 sequence (P22748 19-283 limits assumed): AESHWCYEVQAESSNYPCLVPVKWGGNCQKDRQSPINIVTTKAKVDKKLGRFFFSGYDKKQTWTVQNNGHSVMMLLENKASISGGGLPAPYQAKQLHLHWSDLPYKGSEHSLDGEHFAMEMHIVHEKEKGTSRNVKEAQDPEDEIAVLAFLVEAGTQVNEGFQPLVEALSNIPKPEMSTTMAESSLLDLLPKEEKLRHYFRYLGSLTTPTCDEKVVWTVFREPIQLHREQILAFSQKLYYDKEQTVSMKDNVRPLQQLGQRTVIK

B1: c2C7 (chimeric 2C7, human IgG1 / human kappa 1) (antibody, V domains shown)
VH: QVQLQQSGPELVKPGASVRISCKASGFTFTSCYIHWMKQRPGQGLEWIGWIYPGNGNTKYNEIFKGRATLTTDKSSSTAYMQLSSLTSEDSAVYFCARGDTTANTMDYWGQGTSVTVSS
VL: DIQMTQSPASLSASVGETVTITCRASGNIHNYLAWYQQKQGKSPQLLVYNTITLADGVPSRFSGSGSGTQYSLKINSLQPEDFGSYYCQHFWNIPFTFGAGTKLELKR
notes: Expressed in CHO cells
[1]
  binding result: no binding
[2]
  binding result: binds
[3]
  binding result: no binding
rhCA-IV
  binding result: no binding (tested: 100 nM)
rhCA-XIV
  binding result: no binding (tested: 100 nM)
rhCA-XII
  binding result: no binding (tested: 100 nM)
rmCA-IX
  binding result: no binding (tested: 100 nM)
[4]
  binding result: no binding
[5]
  binding result: no binding
[6]
  binding result: no binding
[7]
  binding result: no binding
[8]
  binding result: no binding
[9]
  binding result: no binding
[10]
  binding result: no binding
[11]
  binding result: no binding
[12]
  binding result: no binding
[13]
  binding result: no binding
[14]
  binding result: no binding
[15]
  binding result: no binding
[16]
  binding result: no binding
